{"source": "patent US20240376207A1", "about": "(JIANGSU HENGRUI PHARMACEUTICALS, published 2024)", "binders": {"B1": {"name": "anti-PVRIG antibody 30 (antibody, human IgG4 S228P, F234A L235A, V domains shown)", "VH": "HVQLVESGGGSVQAGGSLRLSCEASGYSYSGDCMGWFRRAPGKERDEGVATIDNAGRIKYADSVKGRFTISHGNGKYILYLQMNSLKPEDTDMYYCAAGWTFGGNCSPADWGQGTQVTVSS", "notes": "no light chain"}, "B2": {"name": "anti-PVRIG antibody 151 (antibody, human IgG4 S228P, F234A L235A, V domains shown)", "VH": "HVQLVESGGGSVQAGGSLRLSCVASASGFTYRPYCMAWFRQAPGKEREAVAGIDIFGGTTYADSVKGRFTASRDNAGFSLFLQMNDLKPEDTAMYYCAAGDSPDGRCPPLGQGLNYWGQGTQVTVSS", "notes": "no light chain"}, "B3": {"name": "positive antibody Tab5 (antibody, human IgG4 S228P, kappa, F234A L235A, V domains shown)", "VH": "EVQLVESGGGVVKPGGSLRLSCAASGFTFGTSSMNWVRQAPGKGLEWVAVISFDGTEIHYADSVKGRFTISRDNSKSTVFLQMNSLRPDDTALYYCAKGSGNIYFYSGMDVWGQGTTVTVSS", "VL": "DIQMTQSPSTLSASVGDRVTITCRAGQSISGWLAWFQQKPGKAPNLLIYETSTLESGVPSRFSGSGSGTEYTLTISSLQPDDFATYYCQQYYSYPLTFGQGTKVEIKR", "notes": "Variable regions of CPA.7.021 (WO2016134333A1) on human IgG4 (S228P/F234A/L235A/K447A) and human kappa constant regions"}, "B4": {"name": "anti-PVRIG antibody 39 (antibody, human IgG4 S228P, F234A L235A, V domains shown)", "VH": "QVQLVESGGGSVQAGGSLRLSCAASRYTSRTDCMGWFRQAPGKEREGVAHIDSDGIPRYVESVKGRFTISQDHAKNTLYLQMNSLKPEDSATYYCVVGFKFGDYCAPNDWGQGTQVTVSS", "notes": "no light chain"}, "B5": {"name": "anti-PVRIG antibody 38 (antibody, human IgG4 S228P, F234A L235A, V domains shown)", "VH": "QVQLVESGGGSVQAGGSLRLSCAASPSTYGPSDMAWFRQAPGKQREGVATISAAGRLTYYTDSVRGRFTISRDNAKNTMYLQMNSLKPEDTAMYYCAADFAGGSSLFADYKYWGQGTQVTVSS", "notes": "no light chain"}}, "key": {"[1]": {"target": "T1, human PVRIG expressed on cells (human, UniProt Q6DKI7 41-326)", "T1 sequence (looked up)": "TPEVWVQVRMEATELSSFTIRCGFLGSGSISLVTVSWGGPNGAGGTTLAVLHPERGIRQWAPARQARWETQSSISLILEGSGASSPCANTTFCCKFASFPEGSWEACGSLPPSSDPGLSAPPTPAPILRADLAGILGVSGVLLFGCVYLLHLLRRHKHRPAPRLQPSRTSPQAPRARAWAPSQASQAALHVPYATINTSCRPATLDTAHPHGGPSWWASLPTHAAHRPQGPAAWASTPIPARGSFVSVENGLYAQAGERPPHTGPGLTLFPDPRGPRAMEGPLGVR", "test": "cell-based or functional assay"}, "[2]": {"target": "T1, human PVRIG expressed on cells", "test": "cell-based or functional assay", "remark": "listed apart in the source"}, "[3]": {"target": "T1, human PVRIG expressed on cells", "test": "cell-based or functional assay", "remark": "listed apart in the source"}, "[4]": {"target": "T1, human PVRIG expressed on cells", "test": "cell-based or functional assay", "remark": "listed apart in the source"}, "[5]": {"target": "T1, human PVRIG expressed on cells", "test": "FACS, cells overexpressing target"}, "[6]": {"target": "T1, human PVRIG expressed on cells", "test": "FACS, HEK293 cells overexpressing target", "protocol": "The expression plasmid carrying human or cynomolgus monkey PVRIG gene sequence was transfected into HEK293 cells, and the over-expressing stable transfection monoclonal cell strain was obtained by antibiotic screening and infinite dilution. Overexpressing cells were seeded into a 96-well plate at 2×10⁵ cells/per well. The cells were centrifuged at 300 g for 5 min, the supernatant was then removed, 100 μL of the test antibody was added, and the mixture was incubated at 4° C. for 1 h. The mixture was centrifuged, the supernatant was removed, the plate was washed 3 times with 200 μL of wash buffer (PBS+2% FBS), and then 100 μL of an anti-human IgG secondary antibody (Invitrogen, A-11013) labeled with Alexa Fluor 488 diluted at 1:500 was added. The mixture was incubated at 4° C. for 1 h. The plate was centrifuged, and the supernatant was removed. The plate was washed 3 times with 200 μL of wash buffer (PBS+2% FBS). The cells were resuspended in 100 μL of PBS and tested on a flow cytometer (BD FACS Calibur or BD FACS Canto_II).\nBinding of the humanized anti-PVRIG antibodies to human or cynomolgus monkey PVRIG was detected by using a flow cytometer according to the method of Example 5."}, "[7]": {"target": "T2, his-tagged human PVRIG (h-PVRIG-his) recombinant protein (human, UniProt Q6DKI7 41-171, limits assumed)", "T2 construct": "bought from Acrobiosystems; also called Human PVRIG-his; human PVRIG recombinant protein; not shown: his tag", "T2 sequence (looked up)": "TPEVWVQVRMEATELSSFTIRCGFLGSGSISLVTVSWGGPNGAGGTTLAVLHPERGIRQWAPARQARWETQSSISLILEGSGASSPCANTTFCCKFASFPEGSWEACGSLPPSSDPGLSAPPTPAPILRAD", "test": "ELISA, coated antigen"}, "[8]": {"target": "T3, mouse IgG2a Fc-tagged human PVRIG (h-PVRIG-mIgG2a Fc) recombinant protein (human, UniProt Q6DKI7 41-171, limits assumed)", "T3 construct": "bought from Acrobiosystems; not shown: mouse IgG2a Fc tag", "T3 sequence (looked up)": "T2 sequence (looked up)", "test": "competition ELISA; human PVRIG coated, competitor human PVRL2"}}, "note": "Read-outs that look alike come from different tables or passages of the source."}
{"binder": "B1", "values": [{"measurement": "NK92 killing of K562, killing activity (%), 4 nM antibody", "setting": "[1]", "value": 10.4, "unit": "%"}, {"measurement": "NK92 killing of K562, killing activity (%), 20 nM antibody", "setting": "[1]", "value": 11.9, "unit": "%"}, {"measurement": "NK92 killing of K562, killing activity (%), 100 nM antibody", "setting": "[1]", "value": 13.3, "unit": "%"}]}
{"binder": "B2", "values": [{"measurement": "reporter gene activity, fold of the positive antibody Tab5", "setting": "[2]", "value": "3.7 to 18.5", "unit": "fold"}, {"measurement": "NK92 killing of K562, killing activity (%), 4 nM antibody", "setting": "[3]", "value": 20.9, "unit": "%"}, {"measurement": "NK92 killing of K562, killing activity (%), 20 nM antibody", "setting": "[3]", "value": 22.9, "unit": "%"}, {"measurement": "NK92 killing of K562, killing activity (%), 100 nM antibody", "setting": "[3]", "value": 24.2, "unit": "%"}]}
{"binder": "B3", "values": [{"measurement": "PVRIG reporter gene cell activity EC50", "setting": "[4]", "value": 1.38, "unit": "nM"}, {"measurement": "EC50", "setting": "[5]", "value": 3.15, "unit": "nM"}, {"measurement": "NK92 killing of K562, killing activity (%), 4 nM antibody", "setting": "[1]", "value": 5.9, "unit": "%"}, {"measurement": "NK92 killing of K562, killing activity (%), 20 nM antibody", "setting": "[1]", "value": 7.9, "unit": "%"}, {"measurement": "NK92 killing of K562, killing activity (%), 100 nM antibody", "setting": "[1]", "value": 10, "unit": "%"}, {"measurement": "EC50", "setting": "[6]", "value": 0.16, "unit": "nM"}, {"measurement": "EC50", "setting": "[7]", "value": 1.86, "unit": "nM"}, {"measurement": "IC50", "setting": "[8]", "value": 0.797, "unit": "nM"}]}
{"binder": "B4", "values": [{"measurement": "NK92 killing of K562, killing activity (%), 4 nM antibody", "setting": "[3]", "value": 21.3, "unit": "%"}, {"measurement": "NK92 killing of K562, killing activity (%), 20 nM antibody", "setting": "[3]", "value": 22.7, "unit": "%"}, {"measurement": "NK92 killing of K562, killing activity (%), 100 nM antibody", "setting": "[3]", "value": 22.8, "unit": "%"}]}
{"binder": "B5", "values": [{"measurement": "reporter gene activity, fold of the positive antibody Tab5", "setting": "[2]", "value": "3.7 to 18.5", "unit": "fold"}]}
